Series [1] relates to MetMab full heavy chain with E345R Q347R T366V K409V, with MetMab light chain. The series is described as follows: SEC. Background: Size exclusion chromatography separates by hydrodynamic size, large species first.
Series [2] shares this test system. The series is described as follows: SEC. This is another data set of the same source.
For series [3], the system named is MetMab full heavy chain with T366V K409V, with MetMab light chain. Briefly: SEC.
Series [4] shares this test system. Briefly: SEC. This is another data set of the same source.
For series [5], the system named is EGFR domain 3 - Fc with D399M Y407A. Briefly: FRET or BRET.
Series [6] deals with MetMab full heavy chain with T350V T366L K392L T394W, with MetMab light chain. Briefly: SEC.
Series [7] shares this test system. The series is described as follows: SEC. The source holds these as a separate data set.
The test system of series [8] is EGFR domain 3 - Fc with T350V T366L K392L T394W. The series is described as follows: FRET or BRET. On the technique in general: Bioluminescence resonance energy transfer reports proximity on the nanometre scale.
The subject of series [9] is MetMab full heavy chain with T366S L358V Y407A, with MetMab light chain. The series is described as follows: SEC.
The test system is the same in series [10]. Briefly: SEC. The source holds these as a separate data set.
Series [11] addresses IgG1 Fc with T366V K409V. Briefly: SEC.
Series [12] concerns MetMab full heavy chain with K360D D399M Y407A, with MetMab light chain. Briefly: SEC.
For series [13] the test system is unchanged. The series is described as follows: SEC. This is another data set of the same source.
The subject of series [14] is MetMab full heavy chain with D399M Y407A, with MetMab light chain. Briefly: SEC.
Series [15] shares this test system. The series is described as follows: SEC. The source holds these as a separate data set.
For series [16], the system named is MetMab full heavy chain with T350V L351Y F405A Y407V, with MetMab light chain. Briefly: SEC.
For series [17] the test system is unchanged. The series is described as follows: SEC. The source holds these as a separate data set.

From publication PMC4866497 come the findings set out here.

Like-named read-outs stand apart in the source and are kept apart here.

As for IgG1 Fc with K360D D399M Y407A, the % AB heterodimer in series [1] was determined as 32.5%; in series [2], 93.3%.
IgG1 Fc with D399M Y407A: the % AB heterodimer in [3] was found to be 26.9%; in series [4] it was 88.6%.
In series [5], VEGFR1 domain 3 - Fc with T366V K409V displayed a % AB heterodimer of 89%.
Regarding IgG1 Fc with T350V L351Y F405A Y407V, the % AB heterodimer in [6] was 18.3%; in series [7], 94.3%.
Substance “VEGFR1 domain 3 - Fc with T350V L351Y F405A Y407V” had a % AB heterodimer in [8] of 94.8%.
For the substance IgG1 Fc with T366W, the results for the % AB heterodimer in series [9] and in series [10] were 33.1% and 94.1%, respectively.
As for “IgG1 Fc with T366V K409V (domain or fragment)”, in series [11], the % BB homodimer (co-expressed with m8) amounted to 8.2%.
For IgG1 Fc with E345R Q347R T366V K409V, the % AB heterodimer was 46.2% in series [12] and 92.9% in series [13].
As to IgG1 Fc with T366V K409V, the figures for the % AB heterodimer in [14] and in series [15] were 42.3% and 89.9%, respectively.
Regarding IgG1 Fc with T350V T366L K392L T394W, the % AB heterodimer in [16] was determined as 25.6%; in [17] it was 87.6%.
